Literature values in paper PMC7225939.
Read-outs that look alike come from different tables or passages of the source. Each block holds one substance with its values, some of them ahead of it.

Legend:
[1] = target: PCNA (Homo sapiens) (UniProt P12004); experiment: ITC
[2] = target: Cdt1 (Homo sapiens); experiment: FP
[3] = target: Cdt2 (Homo sapiens); experiment: FP
[4] = target: ZRANB3 (Homo sapiens); experiment: ITC
Target sequence in this assay (Q5FWF4 1058-1079): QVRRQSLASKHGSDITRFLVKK

[5] = target: pol η (Homo sapiens); experiment: SPR
[6] = target: pol ι (Homo sapiens); experiment: SPR
[7] = target: DNMT1 (Homo sapiens); experiment: ITC
Chain of DNMT1 (Homo sapiens) (P26358 161-180): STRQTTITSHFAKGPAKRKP

[8] = target: DVC1 (Homo sapiens); experiment: ITC
[9] = target: FEN1 (Homo sapiens); experiment: ITC
[10] = target: PARG (Homo sapiens); experiment: ITC
[11] = target: TRAIP (Homo sapiens); experiment: ITC
Chain of TRAIP (Homo sapiens) (Q9BWF2 447-469): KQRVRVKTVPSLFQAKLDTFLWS

[12] = target: UHRF2 (Homo sapiens); experiment: ITC
[13] = target: ZRANB3 (Homo sapiens); experiment: ITC; remark: listed apart in the source
Target sequence in this assay (Q5FWF4 511-532): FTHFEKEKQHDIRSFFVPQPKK

[14] = target: p12 (Homo sapiens); experiment: ITC
[15] = target: p15 (PAF15) (Homo sapiens) (UniProt Q15004); experiment: ITC
Chain of p15 (PAF15) (Homo sapiens) (Q15004 whole entry): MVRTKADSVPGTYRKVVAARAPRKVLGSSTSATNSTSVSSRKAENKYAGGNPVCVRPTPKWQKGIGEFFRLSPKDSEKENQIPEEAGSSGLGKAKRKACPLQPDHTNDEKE

[16] = target: p15PAF (Homo sapiens); experiment: ITC
Chain of p15PAF (Homo sapiens) (Q15004 50-77): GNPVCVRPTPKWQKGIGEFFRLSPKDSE

[17] = target: p21 (Homo sapiens); experiment: ITC
Chain of p21 (Homo sapiens) (P38936 139-160): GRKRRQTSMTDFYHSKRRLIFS

[18] = target: p68 (Homo sapiens); experiment: ITC
[19] = target: RecQ5 (Homo sapiens); experiment: NMR
Chain of RecQ5 (Homo sapiens) (O94762 952-980): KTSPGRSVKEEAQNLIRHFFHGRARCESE

Chain of PCNA (P12004 whole entry): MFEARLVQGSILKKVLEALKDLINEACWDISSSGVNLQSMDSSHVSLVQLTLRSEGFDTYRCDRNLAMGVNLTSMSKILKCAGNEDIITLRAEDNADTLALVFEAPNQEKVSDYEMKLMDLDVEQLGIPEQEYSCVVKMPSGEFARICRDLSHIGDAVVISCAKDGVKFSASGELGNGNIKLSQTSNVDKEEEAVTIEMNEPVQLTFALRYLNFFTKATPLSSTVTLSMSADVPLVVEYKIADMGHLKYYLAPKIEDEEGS
Chain of PCNA (Homo sapiens) (P12004 whole entry): as above
Chain of p15PAF (from UniProt Q15004) (Q15004 whole entry): as the sequence (Q15004 whole entry) above
Chain of pol η (Homo sapiens) (Q9Y253 other isoform, or with tags, fused parts or gaps): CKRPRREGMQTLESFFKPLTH

Substance: PCNA (from UniProt P12004)
Kd [2]: 7.2 µM | Kd [3]: 0.057 µM | Kd [4]: 9.24 µM | Kd [5]: 0.4 µM | Kd [6]: 0.39 µM | Kd [7]: 1 µM | Kd [8]: 15.6 µM | Kd [9]: 59.9 µM | Kd [10]: 3.3 µM | Kd [11]: 30.7 µM | Kd [12]: 25.7 µM | Kd [13]: 4.8 µM | Kd [14]: 38 µM | Kd [15]: 1.1 µM | Kd [16]: 5.56 µM | Kd [17]: 0.08 µM | Kd [18]: 16 µM | Kd [19]: 210 µM

Substance: p68 (DNA polymerase delta subunit)
Kd [1]: 16 µM

Substance: FEN1
Kd [1]: 59.9 µM

Other lines, results leading:

Kd [1]: 4.8 µM
Substance: ZRANB3

Kd [1]: 0.08 µM
Substance: p21

Kd [1]: 1.1 µM
Substance: p15PAF (from UniProt Q15004)

Kd [1]: 5.56 µM
Substance: p15PAF
